Source: the supplement of paper PMC10567573

B1: DLC1 (parent)
chain: NDDSADYQHFLQDCVDGLFKEVKE
B2: TRIM29 (parent)
chain: FAEKGELRKSIFSESRKPTVSIME

Variants of: B1
Test: protein stability index of a GFP-peptide fusion (GPS, HEK-293T) (PSI 1-6); higher = more stable
Details: c terminus: a fixed tail appended
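Also: lentivirally expressed fusions sorted by FACS into six bins by GFP to DsRed ratio, PSI derived from sequencing read proportions per bin multiplied by bin number.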

Protein stability index, by site and new letter:
E21: L 1.67, Q 2.74, N 3.81
F19: E 4.54, A 5.02, T 5.45
F10: N 4.56, S 3.92, V 1.42, T 2.47, P 4.36, D 5.1
C14: M 3.63, L 1.97, N 5.34, S 4.91, V 3.21, P 5.07, W 4.31
V22: L 3.32, G 5.01, S 5.4, W 4.73
H9: W 3.03, E 3.47, R 2.86, N 3.02, A 3.13, T 2.25
D13: Q 2.24
K20: T 4, S 4.74, D 5.24, V 3.56
Q8: H 2.36, Y 1.56, V 2.93
D3: Y 2.24, I 2.19, N 3.02, C 1.71, P 2.65, F 3.3
S4: M 2.05, F 2.26, W 2.26, N 2.57, E 1.63
L18: P 4.93
Q12: I 3, N 4.24, C 3.91
G17: A 3.68, F 2.12, R 2.01, Y 2.44, V 2.16, L 1.82
D2: L 2.37, Q 2.91, C 2.14, F 2.47, Y 1.2, K 2.11
E24: S 1.91, N 2.5, P 4.54, L 2.36
L11: Q 5.4, Y 4.47, H 5.08, N 4.76, C 3.07
V15: C 4.79
Y7: L 3.03, V 3, C 2.55, Q 4.52
N1: V 1.56
A5: V 2.02, W 2.1, P 2.4, D 2.42, C 2.05, T 2.46
D6: C 2.8, T 2.5, S 3.44, W 2.52, F 2.81, Y 2.94, K 3, R 2.94
K23: G 4.37, Y 2.35, L 2.06, E 3.72, M 2.01

Variants of: B2
Test: as above
Details: c terminus: a fixed tail appended

Protein stability index, by site and new letter:
R16: E 1.3, I 1.78, G 1.99, N 1.5, D 2.04, L 1.99, Q 1.6, C 1.69, V 2.18, W 2.29, M 2.02, T 1.6, K 2.35, A 1.49, Y 1.4, S 1.8, F 1.96, P 1.96, H 1.74
I22: C 2.68, S 1.78, D 1.99, E 2.06, K 2.31, W 1.67, F 1.79, G 1.85, P 2.48, V 1.86, Y 1.38, A 2, R 1.34, M 1.49, Q 1.55, H 3.02, L 2.17, N 1.74, T 2.04
T19: A 3, I 1.17, S 2.74, R 2.02, V 2.56, P 2.39, C 2.39, D 2.15, Q 2.26, G 1.61, M 2.36, L 1.6, Y 2, F 1.59, E 1.8, N 1.72, H 1.75, K 2.58, W 2.94
E24: P 2.23, F 2.22, C 2.07, K 1.76, V 2.33, G 2.2, T 1.88, Q 1.95, A 2.12, Y 2.54, S 1.65, W 2.17, N 1.36, R 1.3, D 2.41, M 2.73, I 2.79, H 3.14, L 2.98
M23: D 1.92, L 1.71, A 1.47, F 1.6, Y 2.2, N 2.38, V 2.01, P 1.84, G 1.57, T 2.22, H 2.56, C 2.16, W 2.21, K 1.66, R 2.22, I 1.49, E 1.56, Q 2.47, S 1.58
F12: W 1.14, S 3.69, V 3.1, P 3.96, R 3.66, Y 2.04, T 3.54, Q 3.72
V20: D 2.02, Y 1.67, R 1.68, E 2.79, H 2.64, K 2.08, T 1.77, F 1.97, P 1.89, I 2.12, W 2.58, A 1.42, M 1.92, S 2.34, Q 2.2, L 1.23, N 1.27, C 2.13, G 1.7
E14: W 1.76, Y 1.7, D 1.54, S 2.31, I 2.32, L 1.91, Q 1.54, G 1.78, V 2.05, N 1.95, T 2.63, R 1.49, K 1.99, M 1.59, H 2.05, A 2.01, F 1.85, P 3.31, C 2.21
K17: H 2.11, Y 2.23, T 2.12, I 2, W 2.22, D 1.65, F 2.05, Q 1.68, N 1.39, C 1.28, M 1.33, L 2.86, E 1.67, R 1.53, A 2.43, S 1.82, P 1.54, V 2.46, G 1.99
P18: S 1.46, M 2.1, G 2.59, K 1.41, L 1.98, R 2.32, N 2.59, A 2.01, Q 1.34, H 1.94, I 2.06, Y 2.79, F 2.31, W 2.83, T 1.85, D 2.32, V 2.5, C 2.21, E 2.35
S15: H 1.52, P 2.71, Q 2.1, R 1.3, L 1.96, C 1.59, G 1.8, K 2, I 1.56, F 2.3, Y 2.04, T 2.31, W 2.29, M 2.04, D 2.26, N 1.64, V 2.3, A 1.75, E 2.01
S21: T 1.76, A 2.12, H 1.31, V 2.17, N 2.11, C 1.49, P 1.47, K 2.7, W 2.55, R 2.19, M 2.61, L 2.05, F 2.61, D 1.65, I 3.09, Q 3.18, Y 2.15, G 1.95, E 1.76
S13: K 2.21, P 3.18, Q 1.75, W 2.55, A 2.1, L 1.84, E 2.71, V 2.58, M 2.76, D 2.42, C 1.67, Y 2.08, F 2.01, I 1.45, R 2.19, G 1.7, H 1.64, T 1.87, N 1.75
